Laboratory results taken from the DeepSol protein solubility set.

Assay: soluble on expression in E. coli; label from the status in PepcDB or PDB records
With “GSHMLESSAEESLAYREDDLRGRLGKVITAVPVDGFGEVVIEGIGGTISKSAVSFDNQQISYGTTVLVVDINNGVLSVTPHEPI” the “soluble on expression in E. coli” value was “soluble”. In the case of “GSHMLKGQEFAPSHQQVYAPLRADGDKPRAHLTVVRQTPTQHFKNQFPALHWEHELGLAFTKNRMNYTNKFLLIPESGDYFIYSQVTFRGMTSESSEIRQAGRPNKPDSITVVITKVTDSYPEPTQLLMGTKSVSEVGSNWFQPIYLGAMFSLQEGDKLMVNVSDISLVDYTKEDKTFFGAFLL”, the “soluble on expression in E. coli” value is reported as “soluble”. For “GSHMPAPHGGILQDLIARDALKKNELLSEAQSSDILVWNLTPRQLCDIELILNGGFSPLTGFLNENDYSSVVTDSRLADGTLWTIPITLDVDEAFANQIKPDTRIALFQDDEIPIAILTVQDVYKPNKTIEAEKVFRGDPEHPAISYLFNVAGDYYVGGSLEAIQLPQHYDYPGLRKTPAQLRLEFQSRQWDRVVAFQTRNPMHRAHRELTVRAAREANAKVLIHPVVGLTKPGDIDHHTRVRVYQEIIKRYPNGIAFLSLLPLAMRMSGDREAVWHAIIRKNYGASHFIVGRDHAGPGKNSKGVDFYGPYDAQELVESYKHELDIEVVPFRMVTYLPDEDRYAPIDQIDTTKTRTLNISGTELRRRLRVGGEIPEWFSYPEVVKILRESNPPRPKQGFSIVLGNSLTVSREQLSIALLSTFLQFGGGRYYKIFEHNNKTELLSLIQDFIGSGSGLIIPNQWEDDKDSVVGKQNVYLLDTSSSADIQLESADEPISHIVQKVVLFLEDNGFFVF”, the “soluble on expression in E. coli” value was “soluble”. For “GSHMPLSSENKQKLQKQVEFYFSDVNVQRDIFLKGKMAENAEGFVSLETLLTFKRVNSVTTDVKEVVEAIRPSEKLVLSEDGLMVRRRDPLP”, the “soluble on expression in E. coli” value was “soluble”. With “GSHMQPMQAMKIERGTILTQPGVFGVFTMFKLRPDWNKVPAMERKGAAEEVKKLIEKHKDNVLVDLYLTRGLETNSDFFFRINAYDLAKAQTFMREFRSTTIGKNADVFETLVGVTKPLNYISKDKSPGLNAGLSSATYSGPAPRYVIVIPVKKNAEWWNMSPEERLKEMEVHTTPTLAYLVNVKRKLYHSTGLDDTDFITYFETDDLTAFNNLMLSLAQVKENKFHVRWGSPTTLGTIHSPEDVIKALAD” the “soluble on expression in E. coli” value was “soluble”. For “GSHMRTIIALETHDVRFPTSRELDGSDAMNPDPDYSAAYVVLRTDGAEDLAGYGLVFTIGRGNDVQTAAVAALAEHVVGLSVDKVIADLGAFARRLTNDSQLRWLGPEKGVMHMAIGAVINAAWDLAARAANKPLWRFIAELTPEQLVDTIDFRYLSDALTRDEALAILRDAQPQRAARTATLIEQGYPAYTTSPGWLGYSDEKLVRLAKEAVADGFRTIKLKVGANVQDDIRRCRLARAAIGPDIAMAVDANQRWDVGPAIDWMRQLAEFDIAWIEEPTSPDDVLGHAAIRQGITPVPVSTGEHTQNRVVFKQLLQAGAVDLIQIDAARVGGVNENLAILLLAAKFGVRVFPHAGGVGLCELVQHLAMADFVAITGKMEDRAIEFVDHLHQHFLDPVRIQHGRYLAPEVPGFSAEMHPASIAEFSYPDGRFWVEDLAASKAKA”, the “soluble on expression in E. coli” value was “soluble”. For “GSKATDSVLQGSEGNKVKRTSCMYGANCYRKNPVHFQHFSHPGDSDYGGVQIVGQDETDDRPECPYGPSCYRKNPQHKIEYRHNTLPVRNV”, the “soluble on expression in E. coli” value was “soluble”. In the case of “GSLNITENESISTAVIDAINSGATLKDINAIPDDMMDDIYSYAYDFYNKGRIEEAEVFFRFLCIYDFYNVDYIMGLAAIYQIKEQFQQAADLYAVAFALGKNDYTPVFHTGQCQLRLKAPLKAKECFELVIQHSNDEKLKIKAQSYLDAIQ”, the “soluble on expression in E. coli” value is reported as “soluble”. For “GSMAGEDVGAPPDHLWVHQEGIYRDEYQRTWVAVVEEETSFLRARVQQIQVPLGDAARPSHLLTSQLPLMWQLYPEERYMDNNSRLWQIQHHLMVRGVQELLLKLLPDDRSPGIHRD”, the “soluble on expression in E. coli” value was “soluble”. In the case of “GSMLISHSDMNQQLKSAGIGFNATELHGFLSGLLCGGLKDQSWLPLLYQFSNDNHAYPTGLVQPVTELYEQISQTLSDVEGFTFELGLTEDENVFTQADSLSDWANQFLLGIGLAQPELAKEKGEIGEAVDDLQDICQLGYDEDDNEEELAEALEEIIEYVRTIAMLFYSHFNEGEIESKPVLH”, the “soluble on expression in E. coli” value is reported as “soluble”. For “GSMQRASRLKRELHMLATEPPPGITCWQDKDQMDDLRAQILGGANTPYEKGVFKLEVIIPERYPFEPPQIRFLTPIYHPNIDSAGRICLDVLKLPPKGAWRPSLNIATVLTSIQLLMSEPNPDDPLMADISSEFKYNKPAFLKNARQWTEKHARQKQKADEEEMLDNLP”, the “soluble on expression in E. coli” value was “soluble”. For “GSMTEIALIGNPNSGKTSLFNLITGHNQRVGNWPGVTVERKSGLVKKNKDLEIQDLPGIYSMSPYSPEEKVARDYLLSQRADSILNVVDATNLERNLYLTTQLIETGIPVTIALNMIDVLDGQGKKINVDKLSYHLGVPVVATSALKQTGVDQVVKKAAHTTTSTVGDLAFPIYDDRLEAAISQILEVLGNSVPQRSARFYAIKLFEQDSLVEAELDLSQFQRKEIEDIIRITEEIFTEDAESIVINERYAFIERVCQMAESHTEDFALTLS”, the “soluble on expression in E. coli” value was “soluble”. With “GSMTGKSVKDVDRYQAVLANLLLEEDNKFCADCQSKGPRWASWNIGVFICIRCAGIHRNLGVHISRVKSVNLDQWTQEQIQCMQEMGNGKANRLYEAYLPETFRRPQIDPAVEGFIRDKYEKKKYMDRSLDINA” the “soluble on expression in E. coli” value was “soluble”. In the case of “GSPALDTGTTEEDRLKIDVIDWLVFDPAQRAEALKQGNAIMRKFLASKKHEAAKEVFVKIPQDSIAEIYNQCEEQGMESPLPAEDDNAIREHLCIRAYLEAHETFNEWFKHMNSVPGGSGGSWKGHLDALTADVKEKMYNVLLFVDGGWMVDVREDAKEDHERTHQMVLLRKLCLPMLCFLLHTILHSTGQYQECLQLADMVSSERHKLYLVFSKEELRKLLQKLRESSLMLLDQGLDPLGYEIQL”, the “soluble on expression in E. coli” value is reported as “soluble”. With “GSPGISGGGGGILVGSKMAASIRERQTVALKRMLNFNVPHVKNSPGEPVWKVLIYDRFGQDIISPLLSVKELRDMGITLHLLLHSDRDPIRDVPAVYFVMPTEENIDRLCQDLRNQLYESYYLNFISAISRSKLEDIANAALAANAVTQVAKVFDQYLN” the “soluble on expression in E. coli” value was “soluble”. For “GSRATVFKLGLFKSLFLCSFHDITRLFKNDKTTNQQWVLAVFGLAEVFFEASFELLKKQCSFLQMQKRSHEGGTCAVYLICFNTAKSRETVRNLMANMLNVREECLMLQPPKIRGLSAALFWFKSSLSPATLKHGALPEWIRAQTTLN”, the “soluble on expression in E. coli” value was “soluble”. In the case of “GSSGSSGMGNSKSGALSKEILEELQLNTKFSEEELCSWYQSFLKDCPTGRITQQQFQSIYAKFFPDTDPKAYAQHVFRSFDSNLDGTLDFKEYVIALHMTTAGKTNQKLEWAFSLYDVDGNGTISKNEVLEIVMAIFKMITPEDVKLLPDDENTPEKRAEKIWKYFGKNDDDKLTEKEFIEGTLANKEILRLIQFEPQKVKEKMKNA”, the “soluble on expression in E. coli” value is reported as “soluble”. In the case of “GSSHHHHHHSSGLVPRGSHMQTTNAVDLGNPDLYTTLERHARWRELAAEDAMVWSDPGSSPSGFWSVFSHRACAAVLAPSAPLTSEYGMMIGFDRDHPDNSGGRMMVVSEHEQHRKLRKLVGPLLSRAAARKLAERVRIEVGDVLGRVLDGEVCDAATAIGPRIPAAVVCEILGVPAEDEDMLIDLTNHAFGGEDELFDGMTPRQAHTEILVYFDELITARRKEPGDDLVSTLVTDDDLTIDDVLLNCDNVLIGGNETTRHAITGAVHALATVPGLLTALRDGSADVDTVVEEVLRWTSPAMHVLRVTTADVTINGRDLPSGTPVVAWLPAANRDPAEFDDPDTFLPGRKPNRHITFGHGMHHCLGSALARIELSVVLRVLAERVSRVDLEREPAWLRAIVVQGYRELPVRFTGR”, the “soluble on expression in E. coli” value is reported as “soluble”. In the case of “GVACKPKEKPSSATSLTDDALMDTVQRRTFNYFWDAAEPNSGLARERYHMDGEYPAGGPEIVTSGGSGFGIMAILAGIDRGYVSREEGLRRMEKIVGFLEKADRFKGAYPHWWNGETGHVQPFGQKDNGGDLVETAFLMQGLLAVHQYYAEGSAEEKKLAGRIDKLWREVDWNWYRHGGQNVLYWHWSPEYGWEMNFPVHGYNECLIMYILAAASPTHGVPAAVYHEGWAQNGAIVSPHKVEGIELHLRYQGGEAGPLFWAQYSFLGLDPVGLKDEYCPSYFNEMRNLTLVNREYCIRNPKHYKGYGPDCWGLTASYSVDGYAAHGPLERDDRGVISPTAALSSIVYTPDQSLQVMHHLYEMGDKVFGPYGFYDAFSETADWYPKRYLAIDQGPIAVMIENYRTGLLWKLFMSHPDVQNGLKKLGFNVKK”, the “soluble on expression in E. coli” value is reported as “soluble”.
